The values that follow come from PMC2481429.

pKd: −log10 of the molar value.

Sequence of U2AF65 (Homo sapiens) (P26368 whole entry, one chain of several): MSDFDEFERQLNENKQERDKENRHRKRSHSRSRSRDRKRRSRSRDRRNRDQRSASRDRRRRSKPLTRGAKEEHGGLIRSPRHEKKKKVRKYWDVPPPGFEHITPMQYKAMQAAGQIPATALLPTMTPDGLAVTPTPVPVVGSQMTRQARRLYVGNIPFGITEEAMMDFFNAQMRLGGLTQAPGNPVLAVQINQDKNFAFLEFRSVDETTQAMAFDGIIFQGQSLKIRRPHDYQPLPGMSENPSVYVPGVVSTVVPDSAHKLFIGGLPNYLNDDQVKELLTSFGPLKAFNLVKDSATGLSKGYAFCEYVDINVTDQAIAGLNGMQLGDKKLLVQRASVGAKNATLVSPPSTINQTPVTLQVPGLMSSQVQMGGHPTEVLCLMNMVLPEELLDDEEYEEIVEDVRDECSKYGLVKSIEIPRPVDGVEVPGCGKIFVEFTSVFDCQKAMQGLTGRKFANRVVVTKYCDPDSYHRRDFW

The first data set addresses U2AF65 (Homo sapiens) (UniProt P26368). The experiment in a line: EMSA. The conditions noted are these: Gel shift with constant 5'-32P RNA and varying U2AF65, triplicate; buffer, salt, pH and temperature not given (as previously described, ref 49). (In general: A gel shift assay detects complexes by their altered migration in electrophoresis.)
On to “CAAAGGCGUUGGUUUUGUUUCCACAG [INSR intron 10 PY tract]”, for which the pKd was 5.06.

As for “CCGCCCACCCCCUCCCCUCACCGCAG [BRUNOL4 intron 9 PY tract]”, the pKd is 5.47.

On to “GCCCUGACCCCUUCCACCCGCUGCAG [LCAT intron 4 PY tract]”, for which the pKd is 5.72.

On to “GCCCUGACCCCUUUUUUUUGCUGCAG [LCATmut intron 4 PY tract]”, for which the pKd is 6.92.

For “UAAUUCUUUUUUUCUUUCUGCCCUAG [SR140 intron 9 PY tract]”, the pKd is 7.52.

As to “UCACCACUCCUUUCUCUUUCAUUCAG [U2AF2 intron 6 PY tract]”, the pKd is 7.10.

Take “UUCGUGCUGACCCUGUCCCGUAUUAGUCCACAGCUGCA [ADMLmut PY tract]”: the pKd was 4.80.

In the case of “UUCGUGCUGACCCUGUCCCUUUUUUUUCCACAGCUGCA [ADML PY tract]”, the pKd was 6.92.

Staying with this data set, now noted: estimated (asterisk), saturation not reached; Gel shift with constant 5'-32P RNA and varying U2AF65, triplicate; buffer, salt, pH and temperature not given (as previously described, ref 49).
As to “CCCUGGCUCACUCCCCUGCCCUGCAG [ITGB4 intron 31 PY tract]”, the pKd was 4.28.

The same data set, now with this note: estimated (asterisk); no detectable binding at concentrations tested; Gel shift with constant 5'-32P RNA and varying U2AF65, triplicate; buffer, salt, pH and temperature not given (as previously described, ref 49).
On to “CAUGUGCUCGCUGCCUGCUAAUUAAG [MBNL1 intron 6 PY tract]”, for which the pKd was 4.00.

The pKd is −log10 of the Kd, conventionally taken in molar units.
